Test [1] has as its target T1, human LINGO-2 expressed on CHO-K1 cells (CHO-K1-hLINGO-2) (human, UniProt Q7L985 26-606).
T1 construct: range 26-606; not shown: 2 amino acid residue linker
T1 sequence (looked up): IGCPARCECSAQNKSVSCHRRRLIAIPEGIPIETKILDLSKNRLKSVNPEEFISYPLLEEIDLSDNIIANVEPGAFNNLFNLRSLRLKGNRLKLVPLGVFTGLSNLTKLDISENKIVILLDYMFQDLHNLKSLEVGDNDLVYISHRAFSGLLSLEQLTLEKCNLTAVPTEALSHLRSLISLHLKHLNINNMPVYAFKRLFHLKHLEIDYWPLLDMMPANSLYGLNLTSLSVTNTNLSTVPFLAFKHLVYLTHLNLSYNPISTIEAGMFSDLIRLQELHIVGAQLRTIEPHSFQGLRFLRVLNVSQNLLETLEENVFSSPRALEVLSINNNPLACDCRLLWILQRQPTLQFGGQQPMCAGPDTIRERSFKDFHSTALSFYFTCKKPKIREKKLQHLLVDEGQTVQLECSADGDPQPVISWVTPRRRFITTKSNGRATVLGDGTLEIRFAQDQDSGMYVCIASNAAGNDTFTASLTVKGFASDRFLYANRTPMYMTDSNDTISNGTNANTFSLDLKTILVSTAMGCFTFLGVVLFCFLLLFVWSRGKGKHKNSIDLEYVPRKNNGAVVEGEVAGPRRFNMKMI
Kind of test: apparent KD, FACS saturation binding on CHO-K1-hLINGO-2 cells, Fab format.

The target of test [2] is T2, human NgR-Fc fusion protein (R&D Systems) (human, UniProt Q9BZR6 27-447, limits assumed).
T2 construct: Commercial protein; also called captured human NgR-Fc; not shown: Fc part of the commercial fusion protein; not described
T2 sequence (looked up): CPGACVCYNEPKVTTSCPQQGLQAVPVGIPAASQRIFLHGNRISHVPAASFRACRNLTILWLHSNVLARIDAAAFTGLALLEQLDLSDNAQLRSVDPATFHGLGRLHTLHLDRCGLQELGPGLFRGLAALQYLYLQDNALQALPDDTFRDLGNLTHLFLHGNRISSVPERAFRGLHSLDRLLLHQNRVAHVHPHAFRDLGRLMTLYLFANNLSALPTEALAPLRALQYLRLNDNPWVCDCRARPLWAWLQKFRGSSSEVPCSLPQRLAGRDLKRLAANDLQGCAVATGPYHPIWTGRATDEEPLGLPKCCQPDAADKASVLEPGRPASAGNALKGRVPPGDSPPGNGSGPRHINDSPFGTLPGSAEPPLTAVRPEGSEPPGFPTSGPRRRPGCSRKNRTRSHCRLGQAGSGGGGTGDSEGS
As to the kind of experiment: ELISA, captured Fc fusion protein.

The target in test [3] is T3, human LINGO-1-ΔLRR-Fc (Igleader-hsLINGO-1-ΔLRR-Fc) (human, UniProt Q96FE5 40-556).
T3 construct: Heterologous secretion signal left out; also called human LINGO-1 lacking the LRR domain
T3 sequence: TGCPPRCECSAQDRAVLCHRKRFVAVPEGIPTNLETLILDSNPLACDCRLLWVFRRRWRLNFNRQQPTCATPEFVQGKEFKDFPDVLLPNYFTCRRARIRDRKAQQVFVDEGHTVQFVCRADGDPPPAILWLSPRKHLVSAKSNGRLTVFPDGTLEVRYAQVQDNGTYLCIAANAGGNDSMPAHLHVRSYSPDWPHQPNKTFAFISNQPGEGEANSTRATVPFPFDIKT
As to the kind of experiment: ELISA, captured Fc fusion protein.

Test [4] addresses T4, cynomolgus monkey LINGO-1 expressed on CHO-K1 cells (CHO-K1-cmLINGO-1) (cynomolgus monkey, UniProt Q9N008 34-614).
T4 construct: range 34-614; also called Cynomolgus LINGO-1; not shown: 2 amino acid residue linker
T4 sequence (looked up): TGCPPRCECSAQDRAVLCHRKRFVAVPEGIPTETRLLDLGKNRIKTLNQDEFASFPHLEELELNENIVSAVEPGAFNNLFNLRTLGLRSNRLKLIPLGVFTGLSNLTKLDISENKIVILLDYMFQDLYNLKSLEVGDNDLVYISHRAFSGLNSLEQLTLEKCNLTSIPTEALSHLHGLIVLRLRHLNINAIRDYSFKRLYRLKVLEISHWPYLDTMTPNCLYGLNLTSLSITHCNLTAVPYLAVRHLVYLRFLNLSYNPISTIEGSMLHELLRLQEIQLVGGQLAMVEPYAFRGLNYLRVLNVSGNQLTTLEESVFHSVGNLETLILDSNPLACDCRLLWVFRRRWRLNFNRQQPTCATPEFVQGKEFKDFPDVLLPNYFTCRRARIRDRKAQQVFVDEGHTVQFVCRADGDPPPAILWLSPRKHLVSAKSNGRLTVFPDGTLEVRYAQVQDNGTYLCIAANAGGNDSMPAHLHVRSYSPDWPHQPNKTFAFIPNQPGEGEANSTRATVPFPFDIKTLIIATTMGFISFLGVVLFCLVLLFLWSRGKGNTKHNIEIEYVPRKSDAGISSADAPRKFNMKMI
As to the kind of experiment: apparent KD, FACS saturation binding on CHO-K1-cmLINGO-1 cells, Fab format. On the procedure: Cell based affinity of anti-LINGO-1 specific antibodies is determined by FACS saturation binding experiments. […] Otherwise the staining procedure is done identical to the FACS staining procedure described above.
In detail, CHO-K1-hLINGO-1, CHO-K1-cmLINGO-1 or CHO-K1-rLINGO-1 are detached from culture flasks by versene, washed with FACS buffer and resuspended in FACS buffer. Purified anti-LINGO-1 Fabs are serially diluted in FACS buffer and spread into round bottom 96-well microtiter plates (NUNC™, Wiesbaden, Germany). For each concentration, duplicate wells are incubated with 1.25×10⁴ cells for 30-60 min on ice in a total volume of 100 μl.

The target of test [5] is Unrelated Fc. As to the kind of experiment: ELISA, Fc fusion captured via goat anti-human IgG Fc, Fab detected with AP-conjugated secondary and AttoPhos.
Test [6] addresses human LINGO-1 expressed on CHO-K1 cells (CHO-K1-hLINGO-1) (human) (UniProt Q96FE5). As to the kind of experiment: apparent KD, FACS saturation binding on CHO-K1-hLINGO-1 cells, Fab format.

B1: anti-LINGO-1 Fab 4785 (Fab, V domains shown)
VH: QVQLQQSGPGLVKPSQTLSLTCAISGDSVSDNSAAWSWIRQSPGRGLEWLGLIYLRSKWDNDYAVSVKSRITINPDTSKNQFSLQLNSVTPEDTAVYYCARTGRADEFDVWGQGTLVTVSS
VL: DIVLTQPPSVSGAPGQRVTISCSGSSSNIGNNYVSWYQQLPGTAPKLLISRNSKRPSGVPDRFSGSKSGTSASLAITGLQSEDEADYYCSTYDTFSIVFGGGTKLTVLG
Turning to B1, the Kd was determined as 1.21 nM in test [1], 0.26 nM in test [4] and 0.35 nM in test [6]. Further, the binding result in test [2] and in test [3] was “no binding” each time. In test [5], the relative fluorescence units (RFU) stood at 6 RFU.

The values above are taken from patent publication US20140255415A1 (Novartis, published 2014).
